# IntAct's records for PubMed 20126263
# B1: TP53-binding protein 1 (Mus musculus), P70399-1 (parent)
# chain: MPGEQMDPTGSQLDSDFSQQDTPCLIIEDSQPESQVLEEDAGSHFSVLSRHLPNLQMHKENPVLDIVSNPEQSAVEQGDSNSSFNEHLKEKKASDPVESSHLGTSGSISQVIERLPQPNRTSSALAVTVEAASLPEEEKEEEELEEEKEGVGANAPGADSLAAEDSASSQLGFGVLELSQSQDVEEHTVPYDVNQEHLQLVTTNSGSSPLSDVDASTAIKCEEQPTEDIAMIEQPSKDIPVTVQPGKGIHVVEEQNLPLVRSEDRPSSPQVSVAAVETKEQVPARELLEEGPQVQPSSEPEVSSTQEDLFDQSSKTASDGCSTPSREEGGCSPVSTPATTLQLLQLSGQKPLVQESLSTNSSDLVAPSPDAFRSTPFIVPSSPTEQGGRKDEPMDMSVIPVGGEPFQKLHDDEAMETEKPLLPSQPAVSPQASTPVSRSTPVFTPGSLPIPSQPEFSHDIFIPSPSLEEPSDDVKKGGGLHSSSLTVECSKTSESEPKNFTDDLGLSMTGDSCKLMLSTSEYSQSSKMESLGSPRTEEDRENTQIDDTEPLSPVSNSKLPADSENVLVTPSQDDQVEMSQNVDKAKEDETEDRGDCKGREDAVAEDVCIDLTCDSGSQAVPSPATRSEALSSVLDQEEAMDTKEHHPEEGFSGSEVEEVPETPCGSHREEPKEEPMESIPLHLSLTETQSEALCLQKEAPKEECPEAMEVETSVISIDSPQKLQVLDQELEHKDPDTWEEATSEDSSVVIVDVKEPSPRADVSCEPLEEVEKCSDSQSWEGVAPEEEPCAENRLDTPEEKRIECDGDSKAETTEKDAVTEDSPQPPLPSVRDEPVRPDQETQQPQVQEKESPVTVDAEVADDKQLGPEGACQQLEKAPACASQSFCESSSETPFHFTLPKEGDIIPPLTGATPPLIGHLKLEPKRHSTPIGISNYPESTIATSDVTSESMVEINDPLLGNEKGDSESAPEMDGKLSLKMKLVSPETEASEESLQFSLEKPTTAERKNGSTAIAEPVASLQKPVPVFGCIYEAQQEKEAQSEAPPSAPDRANLLHFPSAQEEDKERPDVTPKLRQSEQPVKPVGPVMDDAAPEDSASPVSQQRASQEQRASQEPFSPAEDVMETDLLEGLAANQDRPSKMLMDRPTQSNIGIQTVDHSLCAPETVSAATQTVKSVCEQGTSTAEQNSGKQDATVQTERGSGEKPASAPVDDTESLHSQGEEEFEMPQPPHGHVLHRHMRTIREVRTLVTRVITDVYYVDGTEVERKVTEETEEPIVECQECETEVSPSQTGGSSGDLGDISSFSSKASSSHHTSSGTSLSAIHSSGSSGRGAGPLKGKASGTEAADFALPSSRGGPGKLSPRKGISQTGAPVCEEDGDAGLGIRQGGKAPVTPRGRGRRGRPPSRTTGTRETVVSGPLGVEDISPSMSPDDKSFTRIMPRVPDSTKRTDASSSTLRRSDSPEIPFQAATGSSDGLDSSSSGNSFVGLRVVAKWSSNGYFYSGKITRDVGAGKYKLLFDDGYECDVLGKDILLCDPIPLDTEVTALSEDEYFSAGVVKGHRKESGELYYSIEKEGQRKWYKRMAVILSLEQGNRLREQYGLGPYEAVTPLTKAADISLDNLVEGKRKRRSNISSPVTPTAASSSSTTPTRKATESPRASTGVPSGKRKLPTSEEERSPAKRGRKSATVKPGTVGAAEFVSPCETGDNIGEPSVLEEPRGPLPLNKTLFLGYAFLLTMATTSDKLASRSKLLDGPTGSSEEEEEFLEIPPFNKQYTECQLRAGAGYILEDFNEAQCNTAYQCLLIADQHCRTRKYFLCLASGIPCVSHVWVHDSCHANQLQNYRNYLLPAGYSLEEQRILDWQPRENPFQNLKVLLVSDQQQNFLELWSEILMTGGAASVKQHHSSAHNKDIALGVFDVVVTDPSCPASVLKCAEALQLPVVSQEWVIQCLIVGERIGFKQHPKYKHDYVSH
# Variants of: B1
# Settings: with plk1_human PLK1, P53350
# Sequence of plk1_human PLK1, P53350 (P53350 whole entry): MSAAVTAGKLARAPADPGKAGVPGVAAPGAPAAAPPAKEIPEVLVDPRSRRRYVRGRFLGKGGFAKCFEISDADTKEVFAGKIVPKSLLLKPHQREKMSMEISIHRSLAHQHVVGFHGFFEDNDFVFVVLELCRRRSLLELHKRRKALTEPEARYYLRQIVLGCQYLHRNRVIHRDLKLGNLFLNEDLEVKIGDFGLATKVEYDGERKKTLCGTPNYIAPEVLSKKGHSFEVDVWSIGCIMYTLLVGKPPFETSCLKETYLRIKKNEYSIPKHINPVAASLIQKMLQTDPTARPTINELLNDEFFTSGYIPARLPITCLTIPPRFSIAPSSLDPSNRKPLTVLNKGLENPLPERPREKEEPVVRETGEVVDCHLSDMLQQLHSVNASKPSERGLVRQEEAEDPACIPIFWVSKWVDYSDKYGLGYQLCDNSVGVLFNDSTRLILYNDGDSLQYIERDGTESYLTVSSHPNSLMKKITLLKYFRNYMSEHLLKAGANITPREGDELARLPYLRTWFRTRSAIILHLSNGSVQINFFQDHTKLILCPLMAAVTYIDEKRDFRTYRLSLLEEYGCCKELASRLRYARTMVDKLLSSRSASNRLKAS
row,effect of a mutation on the interaction,Variant
1,disrupting interaction,S382A
